# Source: the supplement of paper PMC12042874
# ± gives the uncertainty stated by the source.
# Assay: amyloid nucleation score (Sup35N fusion, yeast selection) (log enrichment); library NNK3; higher = more nucleation; inactive = no reads after selection
# Method in brief: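 The nucleation score is a DiMSum log enrichment of output over input reads, centred on the mode score of non-aggregating sequences. Sequences under 100 input reads were excluded, and reads came from Illumina sequencing of plasmid inserts. Psi-negative yeast expressing Sup35N fused to peptides of 20 random codons were induced with 100 μM copper sulfate for 24 hours and grown 7 days at 30°C on medium lacking adenine and uracil. Random libraries had three technical output replicates.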
row,Substance,amyloid nucleation score
1,QSPRRRMQSDIWS,inactive
2,CYVNYWESDMLRTAVPNCTF,inactive
3,SCYDVFSFYPSPFCLTNSVA,inactive
4,TYSSGFAPGWN,inactive
5,DLRALPKVFLMLDKYSIMSG,inactive
6,NWCLVYRPVKL,1.54 ± 0.1
7,WIRDFYEFAEWSSDTCGIRI,inactive
8,FNTRQSNLKDDMVSFHDSDL,inactive
9,LDNVKDVRYWIVCTQWWNRV,inactive
10,ILSDMTGDHNSINFDMYSGI,inactive
11,CNKGSNTYVVDYAVGNGH,inactive
12,ILTISNTAKKSDW,inactive
13,ALTLMCFSVLGFYYVVMYCF,inactive
14,IAFGVLVDDSDCCIDTYEEE,inactive
15,LFWYTAH,-0.361 ± 0.38
16,LRDFRKVSPAKVIDNRFQTD,0.827 ± 0.17
17,QFGSWD,inactive
18,SSGFSKSKYYICVLQFVGVV,inactive
19,VFLPLPPCTC,inactive
20,CPAYMYCTGMSVNTCPGKGG,inactive
21,SLDKLAFRD,inactive
22,ITNCLTSACRTSLFMKTQII,inactive
23,SFYMPTQKLMLFIVVKVKAT,inactive

row,Substance,amyloid nucleation score
1,REWCLEVYHWYITRSHVYWC,inactive
2,YVVELLVDSGYVPLCTTGQG,inactive
3,GSVGILHFGKYHSIVYSACN,inactive
4,LFCAV,inactive
5,CNISSFNT,inactive
6,VLRVDRGGTIMRYPCLG,inactive
7,FFCKRFYSKFPDQWLAHSVE,inactive
8,SNRNRTTNMNHEPLANYSFN,inactive
9,CSIYNCMSHHKRVTG,1.2 ± 0.15
10,GSYLDDRGSGASIATLLVVM,inactive
11,VRIFSTVEKASP,inactive
12,EVFSDVY,inactive
13,TETASNSTRYSFL,inactive
14,YLVFNQY,1.17 ± 0.086
15,WRYYRAYKVITHIKFLFFTE,inactive
16,YFMIDRPALRLVDKKCGSRS,inactive
17,GLSKKKECGFLLARIVVVVV,inactive
18,YRGIKFTYKPGLLGQFHRED,inactive
19,YYRFLQWSGGNLWTPRWAPC,inactive
20,YSSVTTIVVPSLNAYILNCR,inactive
21,NVLFLVNY,2.42 ± 0.067
22,WWGNRAVVYIILLHEPGAWR,inactive
23,RLIWVDLALMFMFMYFLVRQ,inactive

row,Substance,amyloid nucleation score
1,GLCNTYCFHHCFRWVR,0.769 ± 0.24
2,FMTIIKRWDVWNFCRSSGAV,inactive
3,YRAECNNFLMPLCCTEFFQI,2.2 ± 0.087
4,EVSWD,inactive
5,CPTCWRYVNIRYSI,inactive
6,PLPAYCGYVLIGVHGYPFDI,inactive
7,VCSVTFMLVLLCMRHCLITR,inactive
8,FVRTLCCLAYVWHYDLRYC,0.406 ± 0.31
9,GKCVGEPPAQSEKTWRNGSL,inactive
10,GDDSSRHFNEFLYNRFAALW,inactive
11,LLISDMGFNIVVLMTVSCFY,0.049 ± 0.29
12,IYSVYWDGMEPSIRTGWI,inactive
13,VSVYRRLGHIVLVIVITLAS,inactive
14,QCEAGSGIIAVLHY,inactive
15,LDSGFICMTELIGVVPH,inactive
16,GSLFVI,inactive
17,SSMYISAPSLCYLDFGLEKW,inactive
18,MQYLIYPTWLVIELNC,0.684 ± 0.13
19,SHCYTRVLCTLVVFT,inactive
20,LQTVNLLVPACI,inactive
21,RYKGFINVLC,inactive
22,SSARAKWSDQQMSSYRA,inactive
23,ETHLDTLPVVYHLWLLHVLM,inactive

row,Substance,amyloid nucleation score
1,FDLLRSNYYSFRCVCEVIDR,inactive
2,GFESPRGFSSVFSIVYGFWA,0.855 ± 0.2
3,PKFFEAPQLQLFDAYSSMDF,inactive
4,PFCLPRGASCRAGCGEHIKG,inactive
5,LAIVRRCWNLRYAGYEI,inactive
6,FGNINLCMCFWKMEIECLTR,inactive
7,DGSIGRGVDRRLTKSSQPAL,inactive
8,HYRIESTVLE,-0.772 ± 0.8
9,LLLDNITLGLWEFIRYRCGW,inactive
10,FYTIGWGWNQKCGIFRHMVR,inactive
11,MLNAIGCLSWSQFPESLLLG,inactive
12,YLRGVFLRYGG,inactive
13,PGWLPQGMDNNSLTAVCVTI,inactive
14,NSFLRVIVC,inactive
15,NNVTSIN,-0.821 ± 1.1
16,SMDCFYLSHCRYRPRVI,inactive
17,GLFLGYSLIASVIGRLVDNL,inactive
18,SWMSI,inactive
19,GYKIW,inactive
20,CLVWG,inactive
21,SLRLSCVDVQVNN,-0.253 ± 0.9
22,LNWMRFYVMDMVTFGVWSDQ,0.152 ± 0.31
23,RYLPRTSFPTIL,inactive

row,Substance,amyloid nucleation score
1,INVTLCCTMYD,3.02 ± 0.053
2,MIRYSVQ,0.131 ± 0.24
3,SETCWVIIYWYIGVKMFSRF,inactive
4,SFTNFFNGSVGICFRCTLMC,2.28 ± 0.052
5,SKGSWHVFNKGSEWVKYFGM,inactive
6,GHCEYVVCYVNCRFVQMSVR,1.65 ± 0.093
7,NPMTHYHMIHRSQGNCLLRR,inactive
8,CCFSTGCHEKCSSLDDMCVF,inactive
9,TYKRIPYELTRSGTKPLYTP,inactive
10,RNKLALVLKLAHSI,inactive
11,YSFCVSVATEQLKHLSSLWH,inactive
12,VINVT,inactive
13,FFIDFVGTRCFN,inactive
14,KDRHVSYFGLYKLGWRYTPS,inactive
15,DRFSYFAIFPWYRMCYGMLE,inactive
16,GRTSWGRRR,inactive
17,KKISAQESEFVGSPFEYGGG,inactive
18,TVGCHSGPELMFQSWNSRSL,inactive
19,TRNSYCTFRGGIIFCL,1.25 ± 0.09
20,LGRAQYETQFSATSVRLEPG,-0.142 ± 0.82
21,GGHLLGHIASVFMEFCALQC,inactive
22,RSCSCLSRDKYNYLLIDSLV,inactive
23,GPARTRWILPRVLGCTYRAA,inactive

row,Substance,amyloid nucleation score
1,IPYRVFRRTLNLVENMMCRM,inactive
2,AISPNASTWTACTFYCMDSG,-0.027 ± 0.26
3,CTLIAKHNQA,inactive
4,VGSGCNISTKTACFYMKLIA,inactive
5,IMCIYEGAVSMYMRVWSNMS,inactive
6,NAKPCSGPTMTGADEFPLCL,inactive
7,YMSLVRTGKNTQMVVYRLVL,inactive
8,ILGAILLSMFDSLYLGGEWR,inactive
9,SGPSGSRCGDITLDTPPVLL,inactive
10,VCSHGFCACCRNNKDETWCD,-0.331 ± 0.66
11,WQITTRTIDRPHYKHPGVPL,inactive
12,LHLAMSRTLSHSPHSCV,inactive
13,VRNKLNCKRSGA,inactive
14,ECFEVEQGILDAHSNCWGNI,0.778 ± 0.2
15,QYDIVLCGQWYGLSKGLRYS,inactive
16,HEQDVAPKCWMYVELNQLGW,0.688 ± 0.2
17,NIRKPDMYLITVCWESSQAL,inactive
18,FMRGTVLKTRNYRFRQAHEE,inactive
19,FFVHRCIYVNGWKGQTHSSQ,inactive
20,MKFRLTSSRQSDEAHFMWLT,1.28 ± 0.085
21,NPDAYKERTDLVWSVVVLLW,inactive
22,FGEYKMISVEYLVLEIVRYM,inactive
23,VIYLKTRWNSWCPAGGVLLC,inactive

row,Substance,amyloid nucleation score
1,GNLDTS,-0.668 ± 1
2,VNRKEIRHVRLLCPSRGSVA,-0.091 ± 0.43
3,PYFTDAFVNEMDMQCH,inactive
4,ERIVPA,inactive
5,KSHPLNSVPEKLMLVWRSWK,inactive
6,LCNSVAYPDSGTVRLLKREL,0.005 ± 0.6
7,VEIKYSVFLRWHVMRDDRLD,inactive
8,TIESNCVDDLSIGGAGPNLR,inactive
9,HRIRVVENLPHCVLSSRMPL,inactive
10,TFSFILRSNLLYENRSVDRA,1.57 ± 0.077
11,YSLCLGIAHVRMSTARYYLA,inactive
12,SSEKLMQGFKVRLVCHFLAR,inactive
13,SIVSRLLDSIPMMIMSFYFG,inactive
14,VVSSFMMLVYMNLLNFSNVE,inactive
15,RAFFLVIAIFNKVEVVSGST,1.15 ± 0.14
16,WYKNYASTRIPMIEWKRILT,inactive
17,GSVRNSDKKWVPIVVYIPLQ,inactive
18,VCLHFMGLRVAFLAGMFIII,inactive
19,VFIGSVGFSDLWKLSVAYNY,inactive
